We go through three molecules from patent publication US20230242676A1 (KISOJI BIOTECHNOLOGY, published 2023).

Substitutions are numbered along the chain they refer to. Names and notes keep the numbering of the source.

The target in one test is T1, SEQ ID NO 101 (Homo sapiens (Human), UniProt P0DOX5 343-449 = IgG part).
T1 construct: also called Mutated CH3 domain of KB100 Chain B (mutations D399N, K439E, E357Q, T350V)
T1 constant: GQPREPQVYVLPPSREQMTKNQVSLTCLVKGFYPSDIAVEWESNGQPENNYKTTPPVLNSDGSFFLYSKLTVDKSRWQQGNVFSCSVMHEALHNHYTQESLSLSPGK
The experiment in a line: co-expression of Chain A and Chain B vectors, SDS-PAGE and Western blot; heterodimer formation. (In general: Immunoblotting shows a protein as a band on a membrane.)

The next test has as its target T2, SEQ ID NO 95 (Homo sapiens (Human), UniProt P0DOX5 343-449 = IgG part).
T2 construct: also called Mutated CH3 domain of KB118 Chain B (mutations D399N); K439E
T2 constant: T1 constant with V10T, L11R
The test is described as above.

B1: SEQ ID NO 100 (other)
constant: T1 constant with E16Q, Q17E, K30E, E99K
notes: also called Mutated CH3 domain of KB099 Chain A (mutations D399N, K370E, E356Q, T350V)
Regarding B1, in the test with SEQ ID NO 101, the binding result is on record as “binds”.

B2: SEQ ID NO 102 (other)
constant: T1 constant with V10T, P12R, E16Q, Q17E, K30E, E99K
notes: also called Mutated CH3 domain of KB105 Chain A (mutations D399N, K370E, E356Q, P352R)
B2: the binding result with SEQ ID NO 95 is recorded as “binds”.

B3: SEQ ID NO 103 (other)
constant: T1 constant with V10T, P12E, E16Q, Q17E, K30E, E99K
notes: also called Mutated CH3 domain of KB108 Chain A (mutations D399N, K370E, E356Q, P352E)
Consider B3, for which, in the test with SEQ ID NO 95, the binding result is listed as “binds”.
